{
  "source": "patent US20140314790",
  "target": "T1, N3-2A, Modulator of β-cleavage of APP (MoBA)",
  "T1 chain": "DAVYYCGLKY",
  "data": [
    {"protein": "purified β-secretase (protein) ETDEEPEEPGRRGSFVEMVDNLRGKSGQGYYVEMTVGSPPQTLNILVDTGSSNFAVGAAPHPFLHRYYQRQLSSTYRDLRKGVYVPYTQGKWEGELGTDLVSIPHGPNVTVRANIAAITESDKFFINGSNWEGILGLAYAEIARPDDSLEPFFDSLVKQTHVPNLFSLQLCGAGFPLNQSEVLASVGGSMIIGGIDHSLYTGSLWYTPIRREWYYEVIIVRVEINGQDLKMDCKEYNYDKSIVDSGTTNLRLPKKVFEAAVKSIKAASSTEKFPDGFWLGEQLVCWQAGTTPWNIFPVISLYLMGEVTNQSFRITILPQQYLRPVEDVATSQDDCYKFAISQSSTGTVMGAVIMEGFYVVFDRARKRIGFAVSACHVHDEFRTAAVEGPFVTLDMEDCGYNIPQTDESTLMT", "values": [
      {"measurement": "activity of purified β-secretase on a fluorescent substrate (FRET assay)", "value": "N3-2A did not inhibit the activity of purified β-secretase"}
    ]}
  ]
}
